Reference: US20250019439A1 (Adimab, published 2025)

Tests used:
ADI-26924 = biological target: T1, ADI-26924; assay: SPR Carterra avidity, CHO anti-ID, *koff limit
T1 construct: anti-CD3 antibody made in CHO cells, captured by anti-human Fc
Experimental: (§1) Kinetic analysis was conducted at 25° C. in an HBSTE running buffer system (Carterra Cat #3630) using a Carterra LSA (Carterra USA, Salt Lake City, UT). The sample compartment was maintained at 20° C. for the duration of each experiment.
(§2) For antibody capture experiments, a goat anti-human Fc antibody (Jackson ImmunoResearch) was covalently coupled to an HC30M sensor chip surface via standard amine coupling (1:1 EDC:NHS) and then blocked with ethanolamine (1.0 M, pH 8.5). Covalent coupling steps were performed in 25 mM MES buffer (Carterra, Cat #3625) plus 0.05% Tween20. The anti-CD3 antibodies (100 nM in running buffer) were flowed over discrete regions of interest on the chip surface for 5 minutes. […] Dissociation of the anti-idiotype antibodies was monitored for 300s. Several blank buffer samples were injected over the entire chip surface at the start of each non-regenerative kinetic cycle. The preceding blank buffer injection was used for blank surface subtraction. At the end of each non-regenerative kinetic cycle, all surfaces were regenerated via two 30s injections of 10 mM glycine, pH 1.7.
(§3) For data processing and fitting, sensorgrams were double reference subtracted with a baseline drift correction of 4 RU. Sensorgrams were y-aligned and baseline corrected, filtered and cropped to include only the association and dissociation steps. Data was fitted to a 1:1 binding model using Carterra Kinetics Data Analysis software version 1.7.1.3055.

ADI-76361 [1] = biological target: T2, ADI-76361; assay: SPR Carterra avidity, CHO anti-ID, *koff limit
T2 construct: anti-CD3 antibody made in CHO cells, captured by anti-human Fc
Experimental: as §1, §2, §3

ADI-74967 = biological target: T3, ADI-74967; assay: SPR Carterra avidity, CHO anti-ID, *koff limit
T3 construct: pH-dependent anti-CD3 antibody made in CHO cells
Experimental: as §1, §2, §3

ADI-67447 [2] = biological target: T4, ADI-67447; assay: SPR Carterra avidity, CHO anti-ID, *koff limit
T4 construct: anti-CD3 antibody made in CHO cells, captured by anti-human Fc
Experimental: as §1, §2, §3

ADI-50024 = biological target: T5, ADI-50024; assay: SPR Carterra avidity, CHO anti-ID, *koff limit
T5 construct: anti-CD3 antibody made in CHO cells, captured by anti-human Fc
Experimental: as §1, §2, §3

CTL-62223 [3] = biological target: T6, CTL-62223; assay: SPR Carterra avidity, CHO anti-ID, *koff limit
T6 construct: also called mosunetuzumab
Experimental: as §1, §2, §3

ADI-26909 = biological target: T7, ADI-26909; assay: SPR Carterra avidity, CHO anti-ID, *koff limit
T7 construct: anti-CD3 antibody made in CHO cells, captured by anti-human Fc
Experimental: as §1, §2, §3

ADI-26919 = biological target: T8, ADI-26919; assay: SPR Carterra avidity, CHO anti-ID, *koff limit
T8 construct: anti-CD3 antibody made in CHO cells, captured by anti-human Fc
Experimental: as §1, §2, §3

ADI-67445 = biological target: T9, ADI-67445; assay: SPR Carterra avidity, CHO anti-ID, *koff limit
T9 construct: anti-CD3 antibody made in CHO cells, captured by anti-human Fc
Experimental: as §1, §2, §3

ADI-26943 = biological target: T10, ADI-26943; assay: SPR Carterra avidity, CHO anti-ID, *koff limit
T10 construct: anti-CD3 antibody made in CHO cells, captured by anti-human Fc
Experimental: as §1, §2, §3

ADI-76357 = biological target: T11, ADI-76357; assay: SPR Carterra avidity, CHO anti-ID, *koff limit
T11 construct: anti-CD3 antibody made in CHO cells, captured by anti-human Fc
Experimental: as §1, §2, §3

ADI-26921 IgG [4] = biological target: T12, ADI-26921 IgG; assay: SPR Carterra avidity, CHO anti-ID, *koff limit
T12 construct: anti-CD3 IgG
Experimental: as §1, §2, §3

ADI-26920 IgG = biological target: T13, ADI-26920 IgG; assay: SPR Carterra avidity, CHO anti-ID, *koff limit
T13 construct: anti-CD3 IgG
Experimental: as §1, §2, §3

ADI-74966 = biological target: T14, ADI-74966; assay: SPR Carterra avidity, yeast anti-ID
T14 construct: pH-dependent anti-CD3 antibody made in CHO cells
Method in brief: (§4)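 Kinetic constants come from a 1:1 binding-model fit of double-referenced, drift-corrected sensorgrams. Anti-CD3 antibodies (100 nM) were captured via immobilized anti-human Fc, and anti-idiotype binding was recorded at 25° C in HBSTE, with dissociation monitored for 300s.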

ADI-26915 = biological target: T15, ADI-26915; assay: SPR Carterra avidity, yeast anti-ID
T15 construct: anti-CD3 antibody made in CHO cells, captured by anti-human Fc
Method in brief: as §4

ADI-76361 [5] = biological target: T2, ADI-76361; assay: SPR Carterra avidity, yeast anti-ID
Method in brief: as §4

ADI-70327 = biological target: T16, ADI-70327; assay: SPR Carterra avidity, yeast anti-ID
T16 construct: anti-CD3 antibody made in CHO cells, captured by anti-human Fc
Method in brief: as §4

ADI-26912 = biological target: T17, ADI-26912; assay: SPR Carterra avidity, yeast anti-ID
T17 construct: anti-CD3 antibody made in CHO cells, captured by anti-human Fc
Method in brief: as §4

CTL-62223 [6] = biological target: T6, CTL-62223; assay: SPR Carterra avidity, yeast anti-ID
Method in brief: as §4

ADI-67450 = biological target: T18, ADI-67450; assay: SPR Carterra avidity, yeast anti-ID
T18 construct: anti-CD3 antibody made in CHO cells, captured by anti-human Fc
Method in brief: as §4

ADI-70330 = biological target: T19, ADI-70330; assay: SPR Carterra avidity, yeast anti-ID
T19 construct: anti-CD3 antibody made in CHO cells, captured by anti-human Fc
Method in brief: as §4

ADI-26921 IgG [7] = biological target: T12, ADI-26921 IgG; assay: SPR Carterra avidity, yeast anti-ID
Method in brief: as §4

ADI-26954 IgG = biological target: T20, ADI-26954 IgG; assay: BLI; tip anti-CD3 IgG, solution ADI-34145 IgG
T20 construct: anti-CD3 IgG
Experimental: (§5) ForteBio affinity measurements were performed generally as previously described (Estep et al., MAbs. 2013 5(2):270-8). Briefly, ForteBio affinity measurements were performed by loading antibody IgG or Fabs on-line onto AHC sensors. Sensors were equilibrated off-line in assay buffer for 30 minutes and then monitored on-line for 60 seconds for baseline establishment. For avid binding measurement, sensors with loaded antibodies were exposed to IgG or Fab solutions for 3 minutes, afterwards they were transferred to assay buffer for 3 minutes for off-rate measurement. Kinetics data were fit using a 1:1 binding model in the data analysis software provided by ForteBio to obtain equilibrium dissociation constant (KD=koff/kₒₙ) values. In each column, tip-immobilized antibodies are listed first and solution antibodies second.
(§6) CTL-19613 is an IgG1 antibody prepared with anti-CD3 variable domains corresponding with those of clone 12C described in United States Publication Number US 2010/0183615 (e.g., see paragraphs 469-479 and FIG. 25 thereof), which also make up the CD3 binding domain of the bispecific antibody pasotuxizumab. […] In each column, tip-immobilized antibodies are listed first and solution antibodies second.

ADI-26906 IgG [8] = biological target: T21, ADI-26906 IgG; assay: BLI; tip anti-CD3 IgG, solution ADI-34145 IgG
T21 construct: anti-CD3 IgG
Experimental: as §5, §6

CTL-19613 IgG = assay: BLI; tip anti-CD3 IgG, solution ADI-34145 IgG
Experimental: as §5, §6

ADI-26916 IgG = biological target: T22, ADI-26916 IgG; assay: BLI; tip anti-CD3 IgG, solution ADI-34145 IgG
T22 construct: anti-CD3 IgG
Experimental: as §5, §6

ADI-26913 IgG = biological target: T23, ADI-26913 IgG; assay: SPR Carterra avidity, CHO anti-ID, *koff limit
T23 construct: anti-CD3 IgG
Experimental: as §1, §2, §3

ADI-67447 [9] = biological target: T4, ADI-67447; assay: SPR Carterra avidity, yeast anti-ID
Method in brief: as §4

ADI-26906 IgG [10] = biological target: T21, ADI-26906 IgG; assay: SPR Carterra avidity, yeast anti-ID
Method in brief: as §4

ADI-76359 = biological target: T24, ADI-76359; assay: SPR Carterra avidity, yeast anti-ID
T24 construct: anti-CD3 antibody made in CHO cells, captured by anti-human Fc
Method in brief: as §4

ADI-74968 = biological target: T25, ADI-74968; assay: SPR Carterra avidity, yeast anti-ID
T25 construct: pH-dependent anti-CD3 antibody made in CHO cells
Method in brief: as §4

T12 sequence (VH, as listed by the source limits assumed, chain 1 of 2): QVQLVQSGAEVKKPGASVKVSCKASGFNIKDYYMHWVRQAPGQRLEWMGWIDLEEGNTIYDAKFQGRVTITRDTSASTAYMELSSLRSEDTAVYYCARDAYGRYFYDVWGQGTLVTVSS
T12 sequence (VL, as listed by the source limits assumed, chain 2 of 2): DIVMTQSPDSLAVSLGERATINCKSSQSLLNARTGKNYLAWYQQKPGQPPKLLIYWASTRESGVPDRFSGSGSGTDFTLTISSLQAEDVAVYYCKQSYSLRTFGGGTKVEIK
T4 sequence (VH, as listed by the source limits assumed, chain 1 of 2): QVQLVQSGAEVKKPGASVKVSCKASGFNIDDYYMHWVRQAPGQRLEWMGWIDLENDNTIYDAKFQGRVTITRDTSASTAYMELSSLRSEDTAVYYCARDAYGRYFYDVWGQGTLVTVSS
T4 sequence (VL, as listed by the source limits assumed, chain 2 of 2): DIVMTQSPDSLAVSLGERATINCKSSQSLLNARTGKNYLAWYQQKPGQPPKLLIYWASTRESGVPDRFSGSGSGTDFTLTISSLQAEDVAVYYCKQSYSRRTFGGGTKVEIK
T6 sequence (VH, as listed by the source, chain 1 of 2): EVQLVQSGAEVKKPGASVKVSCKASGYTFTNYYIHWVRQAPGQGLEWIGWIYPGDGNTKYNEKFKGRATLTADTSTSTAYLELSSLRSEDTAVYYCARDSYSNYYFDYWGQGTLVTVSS
T6 sequence (VL, as listed by the source, chain 2 of 2): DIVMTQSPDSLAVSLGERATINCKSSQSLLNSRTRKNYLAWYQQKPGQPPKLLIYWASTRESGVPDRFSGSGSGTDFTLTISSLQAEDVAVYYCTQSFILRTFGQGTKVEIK
T2 sequence (VH, as listed by the source, chain 1 of 2): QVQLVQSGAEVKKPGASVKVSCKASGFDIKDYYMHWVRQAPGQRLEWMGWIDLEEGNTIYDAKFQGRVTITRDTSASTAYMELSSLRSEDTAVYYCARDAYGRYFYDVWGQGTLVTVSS
T21 sequence (VH, as listed by the source limits assumed, chain 1 of 2): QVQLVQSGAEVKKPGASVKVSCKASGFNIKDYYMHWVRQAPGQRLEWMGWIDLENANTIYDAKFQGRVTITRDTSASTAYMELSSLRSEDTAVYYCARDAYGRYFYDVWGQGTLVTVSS
T16 sequence (VH, as listed by the source limits assumed, chain 1 of 2): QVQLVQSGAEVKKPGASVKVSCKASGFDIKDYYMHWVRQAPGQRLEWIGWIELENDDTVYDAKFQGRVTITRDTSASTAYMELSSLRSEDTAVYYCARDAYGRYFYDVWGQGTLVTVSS
T16 sequence (VL, as listed by the source limits assumed, chain 2 of 2): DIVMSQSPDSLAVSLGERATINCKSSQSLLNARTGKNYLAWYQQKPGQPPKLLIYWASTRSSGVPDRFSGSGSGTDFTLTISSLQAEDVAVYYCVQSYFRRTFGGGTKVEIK
T9 sequence (VH, as listed by the source limits assumed, chain 1 of 2): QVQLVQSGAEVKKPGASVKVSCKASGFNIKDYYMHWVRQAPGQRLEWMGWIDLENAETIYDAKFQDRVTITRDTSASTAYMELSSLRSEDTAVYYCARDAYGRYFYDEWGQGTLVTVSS
T3 sequence (VH, as listed by the source, chain 1 of 2): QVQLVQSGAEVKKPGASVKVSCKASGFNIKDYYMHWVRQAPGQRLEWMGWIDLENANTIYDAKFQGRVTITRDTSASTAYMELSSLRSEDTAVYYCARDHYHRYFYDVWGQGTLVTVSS
T3 sequence (VL, as listed by the source, chain 2 of 2): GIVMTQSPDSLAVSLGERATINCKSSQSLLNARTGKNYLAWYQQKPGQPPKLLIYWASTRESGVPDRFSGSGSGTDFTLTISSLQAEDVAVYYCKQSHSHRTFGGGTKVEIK
T14 sequence (VL, as listed by the source, chain 2 of 2): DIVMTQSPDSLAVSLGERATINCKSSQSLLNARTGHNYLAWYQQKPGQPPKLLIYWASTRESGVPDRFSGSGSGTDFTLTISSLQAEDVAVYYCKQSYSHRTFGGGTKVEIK
T1 sequence (VH, as listed by the source, chain 1 of 2): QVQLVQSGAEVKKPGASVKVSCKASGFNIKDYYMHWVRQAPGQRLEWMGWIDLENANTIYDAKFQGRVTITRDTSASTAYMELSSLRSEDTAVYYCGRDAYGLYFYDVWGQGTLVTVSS
T11 sequence (VH, as listed by the source, chain 1 of 2): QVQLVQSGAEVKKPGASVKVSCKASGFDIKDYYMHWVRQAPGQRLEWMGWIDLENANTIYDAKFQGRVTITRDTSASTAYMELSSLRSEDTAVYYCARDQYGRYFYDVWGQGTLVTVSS
T10 sequence (VH, as listed by the source, chain 1 of 2): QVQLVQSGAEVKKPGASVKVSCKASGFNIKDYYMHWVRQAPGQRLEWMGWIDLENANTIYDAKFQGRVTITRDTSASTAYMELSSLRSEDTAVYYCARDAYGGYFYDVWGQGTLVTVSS
T10 sequence (VL, as listed by the source, chain 2 of 2): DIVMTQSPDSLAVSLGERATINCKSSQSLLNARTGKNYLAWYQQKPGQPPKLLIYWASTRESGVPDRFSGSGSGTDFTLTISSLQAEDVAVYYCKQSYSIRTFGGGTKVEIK
T13 sequence (VH, as listed by the source limits assumed, chain 1 of 2): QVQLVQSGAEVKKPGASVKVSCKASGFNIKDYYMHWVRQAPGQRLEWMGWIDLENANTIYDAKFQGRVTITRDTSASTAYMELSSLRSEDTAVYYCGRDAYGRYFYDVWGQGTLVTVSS
T20 sequence (VH, as listed by the source limits assumed, chain 1 of 2): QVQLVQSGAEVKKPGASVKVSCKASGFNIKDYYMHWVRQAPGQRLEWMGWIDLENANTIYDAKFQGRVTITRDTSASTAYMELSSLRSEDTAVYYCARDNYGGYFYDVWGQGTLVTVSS
T20 sequence (VL, as listed by the source limits assumed, chain 2 of 2): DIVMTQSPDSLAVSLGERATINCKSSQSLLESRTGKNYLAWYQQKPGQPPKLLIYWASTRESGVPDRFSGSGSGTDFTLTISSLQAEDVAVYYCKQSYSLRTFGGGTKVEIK
T24 sequence (VH, as listed by the source, chain 1 of 2): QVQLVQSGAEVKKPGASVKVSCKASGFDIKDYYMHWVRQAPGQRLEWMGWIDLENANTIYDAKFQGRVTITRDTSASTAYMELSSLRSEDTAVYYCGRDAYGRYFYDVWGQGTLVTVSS
T17 sequence (VH, as listed by the source, chain 1 of 2): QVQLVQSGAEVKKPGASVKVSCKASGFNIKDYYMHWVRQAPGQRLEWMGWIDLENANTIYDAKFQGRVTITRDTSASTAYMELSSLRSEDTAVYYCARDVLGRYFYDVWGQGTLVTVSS
T22 sequence (VH, as listed by the source, chain 1 of 2): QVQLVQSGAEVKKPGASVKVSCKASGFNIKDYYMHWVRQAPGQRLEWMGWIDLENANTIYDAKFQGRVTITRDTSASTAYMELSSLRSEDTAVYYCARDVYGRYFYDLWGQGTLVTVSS
T5 sequence (VH, as listed by the source limits assumed, chain 1 of 2): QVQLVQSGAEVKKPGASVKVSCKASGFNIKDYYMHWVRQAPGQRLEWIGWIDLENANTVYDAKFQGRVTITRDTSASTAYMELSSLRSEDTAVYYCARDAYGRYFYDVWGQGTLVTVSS
T7 sequence (VH, as listed by the source limits assumed, chain 1 of 2): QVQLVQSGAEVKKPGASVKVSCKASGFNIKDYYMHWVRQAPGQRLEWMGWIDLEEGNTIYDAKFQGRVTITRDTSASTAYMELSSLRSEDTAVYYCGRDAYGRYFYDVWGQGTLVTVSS
T25 sequence (VH, as listed by the source, chain 1 of 2): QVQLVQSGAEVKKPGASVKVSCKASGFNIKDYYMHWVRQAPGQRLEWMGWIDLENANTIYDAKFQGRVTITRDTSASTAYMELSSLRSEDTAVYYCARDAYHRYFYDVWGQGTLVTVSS
T18 sequence (VH, as listed by the source limits assumed, chain 1 of 2): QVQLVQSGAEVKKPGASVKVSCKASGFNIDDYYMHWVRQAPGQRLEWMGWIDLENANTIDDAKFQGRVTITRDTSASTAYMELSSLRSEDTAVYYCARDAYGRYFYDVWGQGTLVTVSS
T19 sequence (VH, as listed by the source limits assumed, chain 1 of 2): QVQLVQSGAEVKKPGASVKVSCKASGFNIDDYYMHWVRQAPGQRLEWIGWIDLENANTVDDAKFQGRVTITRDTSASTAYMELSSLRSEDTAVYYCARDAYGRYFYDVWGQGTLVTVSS
T23 sequence (VH, as listed by the source limits assumed, chain 1 of 2): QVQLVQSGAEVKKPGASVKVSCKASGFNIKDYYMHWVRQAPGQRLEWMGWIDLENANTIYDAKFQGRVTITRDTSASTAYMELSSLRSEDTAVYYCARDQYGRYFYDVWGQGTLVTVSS
T15 sequence (VH, as listed by the source, chain 1 of 2): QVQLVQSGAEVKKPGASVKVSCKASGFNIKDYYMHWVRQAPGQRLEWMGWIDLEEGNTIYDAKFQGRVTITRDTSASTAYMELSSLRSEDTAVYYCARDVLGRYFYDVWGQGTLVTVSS

B1: ADI-34134 IgG (antibody, V domains shown)
VH: QVQLVQSGAEVKKPGSSVKVSCKASGGTFSSYAISWVRQAPGQGLEWMGGIIPIFGTANYAQKFQGRVTITADESTSTAYMELSSLRSEDTAVYYCARGAPNYYGSGGYDDGWFDPWGQGTLVTVSS
VL: EIVLTQSPGTLSLSPGERATLSCRASQSVSSDYLAWYQQKPGQAPRLLIYGASSRATGIPDRFSGSGSGTDFTLTISRLEPEDFAVYYCQQFGRVPTFGGGTKVEIK
Kd (ADI-26924): 0.1 nM | Kd (ADI-76361 [1]): 0.094 nM | Kd (ADI-74967): 0.11 nM | Kd (ADI-67447 [2]): 0.12 nM | Kd (ADI-50024): 0.26 nM | Kd (CTL-62223 [3]): 0.19 nM | Kd (ADI-26909): 0.11 nM | Kd (ADI-26919): 0.11 nM | Kd (ADI-67445): 0.13 nM | Kd (ADI-26943): 0.1 nM | Kd (ADI-76357): 0.088 nM | Kd (ADI-26921 IgG [4]): 0.11 nM | Kd (ADI-26920 IgG): 0.11 nM | Kd (ADI-74966): 52 nM | Kd (ADI-26915): 19 nM | Kd (ADI-76361 [5]): 7.1 nM | Kd (ADI-70327): 14 nM | Kd (ADI-26912): 34 nM | Kd (CTL-62223 [6]): 18 nM | Kd (ADI-67450): 12 nM | Kd (ADI-70330): 13 nM | Kd (ADI-26921 IgG [7]): 3.6 nM

B2: ADI-34145 IgG (antibody, V domains shown)
VH: EVQLLESGGGLVQPGGSLRLSCAASGFTFSSYAMSWVRQAPGKGLEWVSTISGSGGSTYYADSVKGRFTISRDNSKNTLYLQMNSLRAEDTAVYYCARLGGRRGSGSSYYYYYGMDVWGQGTTVTVSS
VL: not shown
notes: anti-ID IgG
Kd (ADI-26954 IgG): 1.82 nM | Kd (ADI-26906 IgG [8]): 8.39 nM | binding result (CTL-19613 IgG): no binding | Kd (ADI-26916 IgG): 7.75 nM | Kd (ADI-26913 IgG): 4.4 nM | Kd (ADI-67447 [9]): 27 nM | Kd (ADI-26906 IgG [10]): 14 nM | Kd (ADI-76359): 14 nM | Kd (ADI-74968): 67 nM
